From the supplement of paper PMC9170038

Legend:
MS2 coat protein [1] = test: apparent KD of MS2 coat protein; designed switch direction (-1 OFF switch, 1 ON switch): 1; higher = weaker reporter binding; settings: Eterna round: R98
Procedure: (§1)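 RNA-MaP: designed FMN/MS2 RNA switches (84 nt design region) are transcribed on-chip within common flanks and titrated with SNAP-549-labelled MS2 coat protein (about 1-3000 nM) in 100 mM Tris pH 7.5, 80 mM KCl, 4 mM MgCl2, without or with 200 uM FMN. Median apparent KD per design; activation ratio = KD,OFF / KD,ON.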

MS2 coat protein [2] = test: apparent KD of MS2 coat protein; higher = weaker reporter binding; settings: Eterna round: R101
Procedure: as §1

| Sequence | apparent KD of MS2 coat protein (MS2 coat protein [1]; input ligand: FMN 200 uM) | apparent KD of MS2 coat protein (MS2 coat protein [1]; input ligand: none) | apparent KD of MS2 coat protein (MS2 coat protein [2]; input ligand: FMN 200 uM) | apparent KD of MS2 coat protein (MS2 coat protein [2]; input ligand: none) |
| --- | --- | --- | --- | --- |
| GCAGAAGGUGCGGAGGAUCACCCUGUAAGGAUAUGCAUUAGCAAGGAUAUACAGAGGAUCACCCUGUAGAAGGUGCACUACAAA [pwkr2 ssNG3 DX.5] | 525 nM | 1890 nM |  |  |
| GCCACAUGAGGAUCACCCAUGUACGGUUCCGUCUCAUUAGUGCAGGAUAUGUUCACCGGAAGUGUGCAGAAGGGUAAAAGUGGG [Onar] | 209 nM | 88.2 nM |  |  |
| GCCAUCGCAUGAGGAUAUGGACAGCUUUGCUGUCCAGAAGGCAUGUCAUAAGACAUGAGGAUCACCCAUGUAGUUAAGAUGGCA [Mat - Same State NG 1 - JL Mod - D15] | 74.1 nM | 1070 nM |  |  |
| GCCAUCGCAUGAGGAUAUGGCACCGUUUCGGUGCCAGAAGGCAUGUCUCUAGACAUGAGGAUCACCCAUGUAGUUAAGAUGGCA [Pyrimidine booster 2] | 50.4 nM | 589 nM |  |  |
| GGACAUCCCACAGGAUAUGCUGGACUUUGUCCAGCAGAAGGGUGACAUGAGGAUCACCCAUGUAAUAGGAUGUCCAUAUUUAAU [Denovo 38] | 79.3 nM | 536 nM |  |  |
| GGCGAUCAGGCUAACAUGAGGAUCACCCAUGUGGACUCAUGGUAGGAUAUGCUGUACAAAGUACAGCAGAAGGGCCGGAGAGCC [Mat - Same State NG 3 - JL Mod - D2] | 144 nM | 152 nM |  |  |
| GGUCCAAUAUGAGGAUAUAGCACCUUAUUGGUGCUAGAAGGCGUGUCGGUAGACAUGAGGAUCACCCAUGUAUUACAAUGGACC [SameState #28 NG1] | 25.6 nM | 88.6 nM |  |  |
| GUAGCAUACCGAGGAUAUUCAGAGAAUAAAUAAACAUGAGGAUCACCCAUGUGGCGAAAGCCUAGGGAGAAGGCGGAAUGCUAC [salish99_SSNG2_r2_208] | 25.3 nM | 81.9 nM |  |  |
| GUAGCAUACCGAGGAUAUUCAUAUAAUAAAUAAACAUGAGGAUCACCCAUGUGGCGAAAGCCUAGGGAGAAGGCGGAAUGCUAA [salish99_SSNG2_r2_113] | 23.6 nM | 201 nM |  |  |
| GUAGCAUACCGAGGAUAUUCAUAUAAUAAAUAAACAUGAGGAUCACCCAUGUGGCGAAAGCCUAGGGAGAAGGCGGAAUGCUAG [salish99_SSNG2_r2_003] | 22.1 nM | 248 nM |  |  |
| GUAGCAUACCGAGGAUAUUCAUAUAAUAAAUAAACAUGAGGAUCACCCAUGUGGCGAAAGCCUAGGGAGAAGGCGGAAUGCUAU [salish99_SSNG2_r2_110] | 24.2 nM | 171 nM |  |  |
| GUCGAAUUCUUAGGAUAUCGAGUGGAUAACACUCGAGAAGGAAGAUAUACCUGAGGAUCACCCAGGUUAAACUGAACGACAAUA [Same State NG1 - A3C, U17G Submission 7D] | 17.5 nM | 18.5 nM |  |  |
| UCACUCACGUCAGGAUAUGGAUCGGAAAACGAUCCAGAAGGGACCUGCAAACCUGAGGAUCACCCUGGUUCCAAUAACGAGUGA [SameSame 10 - Jieux - Same State NG 1] | 133 nM | 222 nM |  |  |
| UGACGGCACACAGGAUAUAGUGCACAAAGUGUACUAGAAGGGUGAGCACUCGUCCGGGCACAUGAGGAUCACCCAUGUCGUCGA [Onusar] | 1040 nM | 133 nM |  |  |
| UGCACAUGAGGAUCACCCAUGUAUUGUUCGGUUUAUAGUAGUGAGGAUAUGCAAAGUAUAAGGAAGCAGAAGGCACAGGAUUCA [JR_SSNG3_Sub045] | 19.5 nM | 26.3 nM |  |  |
| UGGACCAAUACAGGAUAUGGUGACGCACAUGAGGAUCACCCAUGUCCGCAGCGUGCUCAGCACGCCCAGAAGGGUAUUGAUUCA [Tereriesti] | 74.5 nM | 671 nM |  |  |
| UUGACGUCGGAUACAUGAGGAUCACCCAUGUGCCCGCGGGCACAGGAUAUCGAACAUAGUAUUGACGAGAAGGGUGACAGAGAG [Anxeenerce] | 664 nM | 404 nM |  |  |
| UUUACAUGAGGAUCACCCAUGUAUGUCACCCAUGUGUGUAAUCAGGAUAUGAAAUAAAUAAUAAAUUAGAAGGGAUAACAUGAG [Attempt 1] | 72.9 nM | 60.3 nM |  |  |
| UUUACAUGAGGAUCACCCAUGUUUAGAAAGUUAAUUAUAAGUGAGGAUAUAUAAUUUAUAAAAUAGUAGAAGGCACUGGGUAUU [JR_SSNG3_Sub079] | 27.2 nM | 32 nM |  |  |
| UUUAGUUUGUAGAAGGGUGACAUGAGGAUCACCCAUGUGCGUCGCCUGAAAGACCAGGGUACGCCACAGGAUAUACAAAGUAAA [Tiveedbila] (puzzle (switch architecture): Inverted Same State NG 2) |  |  | 76.8 nM | 39.6 nM |
